From the nanobody polyreactivity screen of Harvey et al. (2022)

Assay: yeast display, Sf9 membrane polyspecificity reagent, FACS + sequencing; frameworks hold sequencing errors
Summary of the method: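 Genes from sorted yeast were amplified by colony PCR, read by MiSeq 2 × 250 sequencing and filtered on CDR length. These cells carried a synthetic nanobody library in Saccharomyces cerevisiae BJ5465 and were sorted by FACS into low and high (top ~1%) gates on anti-HA and streptavidin fluorescence. Polyreactivity is labelled according to the gate of origin.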

Row | Sequence | polyreactivity (PSR sort gate)
1 | QVQLVESGGGLVQAGGSLRLSCAASGRIFLNYDMGWYTQAPGKERELVADISISGSTDYADSVKWRFTISRDNAKKTVYLQMNCLKPEDTAVYYCATSFYVSDYYVPYEMGYWGQGTQVTVSS | low polyreactivity
2 | QVQLVESGGGLVQAGGSHRLSSAASARIFAVNVMGWYRQAPGKERELVAAISWSDDIKYYADSVKGRFTISRDNAKNTVYLQMNSLKPEDTAVYYCAADFLPLHADDDDEDYWGQGTQVTVST | high polyreactivity
3 | QVQLVESGGGLVQAGGSLRLSCAASGRISYGYVMGWYRQAPGKERELVAAISRTGGNTYYADSVKGRFTISRDNAKNTVYLQMNSLKPEDTAVYYCAKVYKTGITQYDYWGQGTQVTVSS | high polyreactivity
4 | QVQLVESGGGLVQAGGSLRLSCAASGIFYYNAMGWNIQAPGKERELVAAISYSGGRTYYADSVKGRFTISRDNAKNTVYLQMNSLKPEDTAVYYCNAAARYGRLGGDYWGQGTQVTVSS | high polyreactivity
5 | QVQLVESGGGLVQAGGSLRFSCAASGSTFHRYVMGWYRQAPGKERELVADINSTGGSTYYADSVKGRFTISRDNAKNTVYLQMNSLKPEDTAVYYCARVTRRGPGFSTLYSRYDYWGQGTQVNVSS | low polyreactivity
6 | QVQLVESGGGLVQAGGSLRLSCAASGFIFYYNAMGWYRQAPGKERELVAAIDSGGRTNYADSVKGRFTISRDNAKNTVYLQMNSLKPEDTAVYYCAADVITYATYGTRKFQRYGYWGQGTQVTVSS | low polyreactivity
7 | QVQLVESGGGLVQAGGSLRLSCAASGFTFKLNAMGWYRQAPGKERELVATISSSGGSTFYADSVKGRFTISRDNAKNTVYLQMNSLKPEDTAVYYCAADSGYGPYYYWGQGTQVTVSS | high polyreactivity
8 | QVQLVESGGGLVQAGGSLRLSCAASGSTFGLYAMGWYRQAPGKERELVAAITGRASSTYYADSVKGRFTISRDNAKNTVYLQMNSLKPEDTAVYDCAASGFGQISNPRRDYWGQGTQVTVSS | high polyreactivity
9 | QVQLVESGGGLVQAGGSLRLSCAASGSIFYWYAMGWYRQAPGKERELVAAISGSGGTTYYADSVKGRFTISRDNAKNTVYLQMNSLKPEDTAVYYCATRGWYLGSRGYRTRYGYWGQGTQVTVSS | high polyreactivity
10 | QVKLVESGGGLVQAGGSLSLSCAATGIIFRFYSMGCYRQAPGKERELVAVITSRSDSTYYADSVKGRFTISRDNAKNTFYLQKNSLKPEDTAVYYCNARYPWYYRYSTYDYWGQGTQVTVSS | high polyreactivity
11 | QVQLVESGGGLVQAGGSLRLSCSATGLTFRPYAMGWYRQAPGTERELVAGITRGGSTKYADSVKGRFTISRDNAKNTVYLLMISLKPEDTAVYYCAVERGSYSYDRPFYYWGQGTQVTVSS | high polyreactivity
12 | QVQLVESGGGLVQAGGSLRLSCAASGSIFAVYAMGWYRQAPGKEREFVARISWGGGRTYYADSVKGRCTISRDNAKNPVYLQMNSLKPEDTAVYYCAATFRARPRENYWGQGTQVTVSS | high polyreactivity
13 | QVQLEESGGGLVQAGGSLRLSCAASGSIFQSYDMGWYRQAPGKERELVAAISWSGSTTYYADSVKGRFTISRDNAKNTVYLQMNSLKPEDTAVYYSAVDSNPPDWWAVIYGYWGQGTQVTVSS | low polyreactivity
14 | QVQLVESGGGLVQAGGSLRLSCAASGRSFYFNAMGWYRQAPGKEWELVAVINSSGSTDYADSVKGRFTISRDNAKNTVYLQMNSLKPEDTAVYYCAAEVTPSGYGYWGQGTQVTVSS | low polyreactivity
15 | QVQLVESGGGLVQAGGILRLSCASSGSTFPTNAMGWYTQAPGKERELVAAISSSGGRTYYADSVKGRFTISRDNAKNTVDLQMNSLKPEDTAVYSCAAVWWRAYAVRMYYWGQGTQVTVSS | high polyreactivity
16 | QFQLVESGGGLVQAGGSLRLSCAASGSIFVYNVMGWYRQAPGKERELVAAITYSGGGTYYADSVKGRFTISRDTAKNTVYLQMNSLKPEDTAVYYCAAAYPSVAYSYRYDYWGQGTQVTVSS | high polyreactivity
17 | QVQLVESGGGLVQAGGSLRLSCAASGSIFEGYVMGWYRQAPGKERELVAAITTGGGSTYYADSVKGRFTISRDNAKKTVYLQMNSLKPEDTAVYYCAKDYWFGYEYWGQGTQVTVSS | low polyreactivity
18 | QVQLVESGGGLVQAGGSLRLSCAASGFTFEYYAMGWYRQAPGKERELVATITSGGSTYYADSVKGRFTISRDNAKNTVYLQMNSLKPDDTAVYYCITSSPWIEDYWGQGTQVTVSS | low polyreactivity
19 | QVQLVESGGGLVQAGGSLRLSCSASGSTFSAYVMGWYRQAPGKERKLVAAITRSGVSTYYADSVKGRFTISRDNAKNTVYLQMNSLKPEDTAVYYCNKRVGFLYKYDYWGQGTQVTVSS | high polyreactivity
20 | QVQLVESGGGLVQAGGSLRLSCASSGNTFIENAMGWYRQAPGKERELVAAIDTGGSTYYADSVKGRFTISRDNAKNTVYLQMNSLKPEDSAVYYCTAVGLYLYRYIFGYLGKIGPGYDYWGQGTQVSVSS | low polyreactivity
21 | QVQLVDSGGGLVQAVGSLRLSCAASGSIFRLNAMGWYRQAPGKERDLVGAITWSDSSTYYADSVKGRFTISRDNAKNTVYLQMNSLKPEDTAVYYCAADPQSYKYDYWGQGTQVTVSS | low polyreactivity

Row | Sequence | polyreactivity (PSR sort gate)
22 | QVQLVESGGGLVQAGGSLRLSCAASGRTFEYYAMGWYRQAPGKERELVASITSSGVRTYYADSVKGRFTISRDNAKNTVYLQMNSLKPEDTAVYYCAKRLVYSRWGDYWGQGTQVTVSS | high polyreactivity
23 | QVQLVESGGGLVQAGGSLRLSCAASGSIFFRYATMGWYRHAPGKESELVAAISRSGGSTYYADSVKGRFTISRDNGKNTVYLQMNSLKPEDTAVYYCAKVSPSLRASGYDYWGQGTQLTVSS | high polyreactivity
24 | QVQLVESGGGLVQAGGSLRLSCAASGSIFKRYAMGRYRQAPGKERELVAAISYSGTSTYYADSVKGRFTISRDTAKNTVYLQMNSLKPEDTAVYYCNKVPGYRHYLGYPGRYGYWGQGTQVTVSS | high polyreactivity
25 | QVQRVESGGGLVQAGGSLRLSCAASGSTFTWNVMGWYRQAPGKERELVASITSGDSTYADSVKGRFTISRDNAKNTVYLQMNSLKPEDTAVYYCNVGYDQEKYGYWGQGTQVTVSS | low polyreactivity
26 | QVQLVESGGGLVQAGGSLRLSCAAAGITFTVYAMGWYRPAPGKERELVAAISQSGGSTYYADSVKGRFTISRDNAKNTVSLQMNSMKPEDTAVYSCNADTVWVPYRTYIPFDYWGQGTQVTVSS | low polyreactivity
27 | QVQLGESGGGLVQAGGSLRLTCAASGYIFISDAMGLYRQAHGKEREFVAAITGDGGSTYADSVKGRFTISRYNAKNTVYLQMNSLKPEDTAVYYCAAEGQLFDLYDYWGQGTEVTVSS | low polyreactivity
28 | QVQLVESGGGLVQAGGSLRLSCAASGRTFYAYAMGWYRQAPGKERELVAAIRISGTSTYYADSVKGRFTISRDNAKNTVYLQMNSLKPEDTAVYYCARYVKLSGYGFYYWGQGTQVTVSS | high polyreactivity
29 | QVQLVESGGGLVQAGGILRLSCAASGRIINIYAMGWYRQAPGKEREMVAAISGSGGRTSYADSVKGRFTFSRDNAKNTVYLQMNILKPEDTAVYYCAADYSYYTSFRYDYWGQGTQVTVSS | low polyreactivity
30 | QVQLVESGGGLVQAGGSLRLSCAASGTLYINVMGWYRQAPGKERELVAAISSNGARTYYADSVKGRFTISRDNAKNTVYLQMNSLKPEDTAVYYCNRVASVRARDYDYWGQGTQVTVSS | high polyreactivity
31 | QVQLVESAGGIVQAGGSLRLRCAASGRTVVNSMGWYRQAPGKERELVAAISTNGGRTYYADSVKWRFTISRDNAKNTVYLQMNSLKPEDTAVYYCAKVLGIRPTYYYWGQGYQVTVSS | high polyreactivity
32 | QVQLVESGGGLVQAGGSLRLSCAASGSNILQNAMGWYRQAPGKERELVAAITNGGSTNYADSVKGRFTISRDNAKNTVYLQMNSLKPDDTAVYYCAAYPLYTGSYDRGGYWGQGTQVTVSS | low polyreactivity
33 | QVQLVESGGGLVQAGGSLRLSCAASGYTIRYYAMGWYRQAPGKERELVAAISYSGGRTYYADSVKGRFTISRDNAKNTDYLQMNSLKPEDTAVYYCNAGYYSYRYRYGYDYWGQGTQVTVSS | high polyreactivity
34 | QVQLVESVGGLFQAGGSLRLSCAASGSTFDYYSMVWYRQAPGKERELVAGIDSAGSTNYADSVKGRFTISRDNAKNTVYLQMNSLKTGRYRGLYCNVGKTITTYAFPTFDYWGQGTQVTVSS | low polyreactivity
35 | QVHHVESAGGLVQAGGILRLSCAASGRTFGANAMGWYRQPPVKERELVAAISKSGGRTYYADSVTGRFTISRDNAKNTVYLQMNSLKPEDTEVYYCNKVMCVSQAGGFDYWGQGTQVTVSS | high polyreactivity
36 | QVQLVESGGGLVQAGGSLRLSCAASGIIFGDNAMGWYRQAPVTERELVAAIDSGGSTYYADSVKGRFTISRDNAKNTVYLQMISLKPEDTAVYYCNAVTAFGYSYAGWDYDQYNYWGQGTEVTVSS | low polyreactivity
37 | QVQLVESGGGLVQAGGSLRLSCADSGGTFYRYARGWYRQAPGKERELVAAISRRGGSTYYADSVKGRFTISRDNAKNTVYLQMNSLKPDDTAVYYCDKDVSDSRFDYWGQGTQVTVSS | high polyreactivity
38 | QVQLVESGGGLVQAGGSLRLSCASSGPIFVYKVKGWYRQAPGKERELVAAISWGTGSTYADSVKGRFTISRDNAKNTVYLQMYSLKPEDTAVYYCAAESFIPPYDHWGQGTQVTGSS | low polyreactivity
39 | QVQLVESGGGLVQAGGSLRLSCAASGSTMRFYAMGWYRQAPGKERELVAAISSSGSSTYYADSVKGRFTISRDNAKNTVYLQMNSLKPEDTAVYYCSGYGYWGQGTQLTVSS | high polyreactivity
40 | QVQLVESGGGLVQAGGSLRLSCAASGSILYSNMGWYRQAPGKERELVAAITYSGGRTYYADSVKGRFTISRDNAKNTVYLQMNSLKPEDTAVYYCAARLATYGASTYYYWGQGTQVTVSS | high polyreactivity
41 | QVQLVESGGGLVQAGGSLRLSCAASGRTFSIYAMGWYRQAPGKERELVAAISNGGRTKYADSVKGRFTISRDNAKNTVYLQMNSLKPEDTAVYYCNALAYNVPRYDYWGQGTQVTVSS | high polyreactivity
